± gives the uncertainty stated by the source.
Experiment: amyloid nucleation score (Sup35N fusion, yeast selection) (log enrichment); library NNK3; higher = more nucleation; inactive = no reads after selection
Procedure, shortened: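 Output and input plasmid inserts were sequenced by Illumina after psi-negative yeast carrying Sup35N fused to peptides of 20 random codons had been induced 24 hours with 100 μM copper sulfate and grown 7 days at 30°C on medium lacking adenine and uracil. The nucleation score is the DiMSum log enrichment of output over input reads, centred on the mode score of non-aggregating sequences. Sequences with under 100 input reads were excluded.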
For CEWNERRRDGSSRNFDLLSQ, the amyloid nucleation score was -0.045 ± 1.1. VNLITCKQVSFRCQVSGILC gave an amyloid nucleation score of 2.19 ± 0.092. With PARGLDQEMSSKVFMRGYLA the amyloid nucleation score was “inactive”. For NPLYVFDRI, the amyloid nucleation score was -0.71 ± 0.53. In the case of QGAMVD, the amyloid nucleation score is reported as “inactive”. With ISLYNRNIYCRLTFMLRVIR the amyloid nucleation score was “inactive”. In the case of VGGGVPVTLGFSLRRSWSVV, the amyloid nucleation score is reported as 0.199 ± 0.62. For FRVVNMSWCAPNLTLRFKYL, the amyloid nucleation score was “inactive”. For QRTFG, the amyloid nucleation score was “inactive”. For RLVNVNDTGVLDVSVITRCS, the amyloid nucleation score was 0.207 ± 0.6. Work on RCSCLTFVVSTK yielded an amyloid nucleation score of 0.424 ± 0.75. In the case of SSLNSMIIIRFHTSKGHVCK, the amyloid nucleation score is reported as 1.32 ± 0.17. With WTRGNRHVVLQLLGQVSF the amyloid nucleation score was “inactive”. In the case of CDIHLRIY, the amyloid nucleation score is reported as “inactive”. In the case of FDNFADNRLNKVSYKYQT, the amyloid nucleation score is reported as 1.27 ± 0.12. In the case of YLLHK, the amyloid nucleation score is reported as “inactive”. For YLIMSVSYSASTCLIKMAMV, the amyloid nucleation score was “inactive”. In the case of QTLFRTLWRFIIITAKQSSD, the amyloid nucleation score is reported as “inactive”. In the case of STFGVVMTSSSD, the amyloid nucleation score is reported as “inactive”. For DNSCVMMKTGGRYFELFRVV, the amyloid nucleation score was “inactive”. In the case of RGRMLDHGSS, the amyloid nucleation score is reported as “inactive”. In the case of ILQKSDVSII, the amyloid nucleation score is reported as “inactive”. For RILRVRF, the amyloid nucleation score was “inactive”. In the case of ASKALIWCLSRCIDLVVLRE, the amyloid nucleation score is reported as “inactive”. With WFSNWYYVARDDYLISGREE the amyloid nucleation score was “inactive”. With WYIVTNR the amyloid nucleation score was “inactive”. In the case of IVADAAWNAIGVSGMDSTGT, the amyloid nucleation score is reported as “inactive”. Work on CILYLHIAALVLLI yielded an amyloid nucleation score of -1.33 ± 2.5. In the case of MYAVSGVNAQGWWLLADYEL, the amyloid nucleation score is reported as “inactive”. NIGYSMLESPFIIIDICNSC gave an amyloid nucleation score of 0.619 ± 0.13. For CAESFHIAASG, the amyloid nucleation score was “inactive”. For CLTIHWTVFSGAARLSFIMT, the amyloid nucleation score was “inactive”. In the case of RLAGSFKLKSVYKGMLDYLA, the amyloid nucleation score is reported as 0.819 ± 0.15. With TVGSRGSTPHCTLLLVSWSL the amyloid nucleation score was “inactive”. In the case of FTYVLTLMSFNGGPRGRYGW, the amyloid nucleation score is reported as 2.66 ± 0.068. For YPCNFYWFRNILADTPIQYD, the amyloid nucleation score was “inactive”. With NNCVITFFEFSTWGCLYLKF the amyloid nucleation score was “inactive”. For LLTARTITSCKQWPGTSRYT, the amyloid nucleation score was “inactive”. In the case of YFYFDFNYNMYGVKALLVLC, the amyloid nucleation score is reported as “inactive”. Substance LRPKYTFYCRLD has an amyloid nucleation score of 0.137 ± 0.28. In the case of RYHNFLYGLGNPMG, the amyloid nucleation score is reported as “inactive”. For NKGSVDGYMFSTGVTFLMLE, the amyloid nucleation score was “inactive”. With MQLDYSSSVLNMFLDANILY the amyloid nucleation score was “inactive”. With IDWLKRVVEVTSVEGAYCWW the amyloid nucleation score was “inactive”. For FVVWCDVTGS, the amyloid nucleation score was “inactive”. In the case of PGCAAWRRSYVS, the amyloid nucleation score is reported as “inactive”. In the case of YSFRCPGFNYYL, the amyloid nucleation score is reported as “inactive”. In the case of LLKIFNNEVKITITFCLLYV, the amyloid nucleation score is reported as “inactive”. With IFLKNCLLWKTAGSFMNSIA the amyloid nucleation score was “inactive”. Work on QTGCIPNER yielded an amyloid nucleation score of 1.05 ± 0.23. In the case of LCPIAMCCSG, the amyloid nucleation score is reported as “inactive”. For VWSQIERLKHHPEFHMWC, the amyloid nucleation score was “inactive”. FIYNVDVHCASSVNIGWGQK gave an amyloid nucleation score of 2.83 ± 0.08. In the case of ISDRFQAESCSRCSLVSSMF, the amyloid nucleation score is reported as “inactive”. With CAYDINYLCSREWVSNSCWG the amyloid nucleation score was “inactive”. With VFFSWPMARKCEGSEDHPNF the amyloid nucleation score was 0.005 ± 0.98. With SRWEKSFALICAS the amyloid nucleation score was “inactive”. With WVVEQVDLLSGMVIGLKNSR the amyloid nucleation score was “inactive”. In the case of IIMGV, the amyloid nucleation score is reported as “inactive”. NALRFNLWMLNTVKVEYRSD gave an amyloid nucleation score of 2.15 ± 0.067. For SSGSFS, the amyloid nucleation score was “inactive”. SLEGTYGHLRQELTTSPNAH gave an amyloid nucleation score of 0.907 ± 0.17. With LSLLSFNGIGHFLIVRKRYK the amyloid nucleation score was “inactive”. For TVHILANRPRAQYD, the amyloid nucleation score was “inactive”. For GISPQC, the amyloid nucleation score was “inactive”. Substance LWHSYFSFYLCVTFENRVIN has an amyloid nucleation score of 2.79 ± 0.052. Work on KNQMVFVINY yielded an amyloid nucleation score of 2.68 ± 0.053. In the case of LYILGQIFR, the amyloid nucleation score is reported as “inactive”. For YVYESFGWVSGNFKVWF, the amyloid nucleation score was “inactive”. With ALVSK the amyloid nucleation score was “inactive”. For SPRKTNEAWPTGLSYETSVA, the amyloid nucleation score was “inactive”. Substance FFSTLVYNRRIVCWFRSGR has an amyloid nucleation score of -1.49 ± 2.5. For CFYLDQSRFRSA, the amyloid nucleation score was “inactive”. Work on TYDTGWKCREPNVTIFNVWL yielded an amyloid nucleation score of 2.91 ± 0.053. KTLTKSNIWIG gave an amyloid nucleation score of -0.639 ± 0.87. For RTNQLREPRANRWEGLAVLK, the amyloid nucleation score was “inactive”. ARYKGWTHNWPINHLIFLNS showed an amyloid nucleation score of -0.127 ± 1.1. For VWWSYLQKSKILI, the amyloid nucleation score was 0.624 ± 0.2. Substance YIILCSIFSYWENMGHI has an amyloid nucleation score of 2.78 ± 0.08. For LLIIGLKSAVGVW, the amyloid nucleation score was “inactive”. In the case of ERARAAWSNGKAGLLWSGPG, the amyloid nucleation score is reported as “inactive”. With SIKLGFYIIIFDLWYSPMMV the amyloid nucleation score was “inactive”. Substance RCLCDPGYCCIFISENWIL has an amyloid nucleation score of 1.74 ± 0.064. In the case of ILFRYFISGMVVWGDNMENE, the amyloid nucleation score is reported as “inactive”. With NYPLRFLGKLAAT the amyloid nucleation score was “inactive”. With PYGICNLKF the amyloid nucleation score was “inactive”. For RGYGTSDRIAALMWLSRWFQ, the amyloid nucleation score was “inactive”. Work on FKVSFIWCCNFKMSCGAYER yielded an amyloid nucleation score of 0.446 ± 0.4. With ATLYNSVRLC the amyloid nucleation score was “inactive”. For KLLLYFKYLMPVELISWSTL, the amyloid nucleation score was “inactive”. For PVFLCSLLLVPKANSIPGK, the amyloid nucleation score was “inactive”. For IGISSGVTKICYGGTFKHMP, the amyloid nucleation score was “inactive”. Work on WLLTNNLDCQCCMCLDWMWC yielded an amyloid nucleation score of 2.81 ± 0.057. With ANKPWVNDIFPT the amyloid nucleation score was “inactive”. In the case of LLVYFE, the amyloid nucleation score is reported as “inactive”. With NSVDP the amyloid nucleation score was “inactive”. LKWQVRHLWGNDVVGHRYTH showed an amyloid nucleation score of -0.546 ± 0.6. With YASFTK the amyloid nucleation score was “inactive”. Substance WQYLNFS has an amyloid nucleation score of 0.75 ± 0.29. With SDFSVRVLDNWIHNMTGRIG the amyloid nucleation score was “inactive”. In the case of MVIYSLHRTLIIICGRANLT, the amyloid nucleation score is reported as “inactive”. With PNWNYSSLGQTSGQSSRHTS the amyloid nucleation score was “inactive”. For RCRCTFYCFRVL, the amyloid nucleation score was “inactive”. Substance QWSGDDTT has an amyloid nucleation score of 0.368 ± 0.22. For NDLWIEMFKS, the amyloid nucleation score was “inactive”. In the case of TFRLKGALRKVVW, the amyloid nucleation score is reported as “inactive”. In the case of MRSMVKLSCDERVCFVISGE, the amyloid nucleation score is reported as “inactive”. For GLYKNK, the amyloid nucleation score was “inactive”. With YGTNQMTLPKCRYWGFYREE the amyloid nucleation score was -0.149 ± 0.7. With MYSHRRGRKLRLLESFYNLS the amyloid nucleation score was “inactive”. In the case of IALVMSIDVAVVLMYPSPQW, the amyloid nucleation score is reported as 0.381 ± 0.24. With TQDGELV the amyloid nucleation score was “inactive”. Substance AMIFAICCLNNQESVGVRRT has an amyloid nucleation score of 2.49 ± 0.071. For QRVWRMMQNLSRW, the amyloid nucleation score was “inactive”. DNVSKSSIHTTLVLASFLCS gave an amyloid nucleation score of 1.55 ± 0.11. In the case of CVAKK, the amyloid nucleation score is reported as “inactive”. In the case of WHGYYMFLW, the amyloid nucleation score is reported as “inactive”. For LVVATRRLMYGHRKVYAWVD, the amyloid nucleation score was “inactive”. With NMRRRYC the amyloid nucleation score was “inactive”. With GAGPGLITMSNSN the amyloid nucleation score was “inactive”. With VLAMCVYSACMWFGNNAMLH the amyloid nucleation score was “inactive”. With FLTWRIGVVS the amyloid nucleation score was “inactive”.

— the supplement of paper PMC12042874
